Consider one molecule from PMC5424160, “Menin enhances c-Myc-mediated transcription to promote cancer progression” (Nature Communications, 2017).

In this test the target is T1, GST-CycT1 (UniProt O60563 1-726).
T1 construct: Cyclin T1, cDNA cloned into pGEX-4T-1; also called GST fused CycT1 protein; source: Escherichia coli (DE3), purified
Nature of the test: pull-down; GST pull-down: purified GST fused protein as bait and purified His-tag protein; pull-down buffer 150 mM NaCl, 50 mM Tris pH 7.5, 0.1% NP-40, 5 mM DTT; western blot. The settings on record: both partners purified. (In general: Immunoblotting shows a protein as a band on a membrane.)

T1 sequence (O60563 whole entry, the tested form may be a part): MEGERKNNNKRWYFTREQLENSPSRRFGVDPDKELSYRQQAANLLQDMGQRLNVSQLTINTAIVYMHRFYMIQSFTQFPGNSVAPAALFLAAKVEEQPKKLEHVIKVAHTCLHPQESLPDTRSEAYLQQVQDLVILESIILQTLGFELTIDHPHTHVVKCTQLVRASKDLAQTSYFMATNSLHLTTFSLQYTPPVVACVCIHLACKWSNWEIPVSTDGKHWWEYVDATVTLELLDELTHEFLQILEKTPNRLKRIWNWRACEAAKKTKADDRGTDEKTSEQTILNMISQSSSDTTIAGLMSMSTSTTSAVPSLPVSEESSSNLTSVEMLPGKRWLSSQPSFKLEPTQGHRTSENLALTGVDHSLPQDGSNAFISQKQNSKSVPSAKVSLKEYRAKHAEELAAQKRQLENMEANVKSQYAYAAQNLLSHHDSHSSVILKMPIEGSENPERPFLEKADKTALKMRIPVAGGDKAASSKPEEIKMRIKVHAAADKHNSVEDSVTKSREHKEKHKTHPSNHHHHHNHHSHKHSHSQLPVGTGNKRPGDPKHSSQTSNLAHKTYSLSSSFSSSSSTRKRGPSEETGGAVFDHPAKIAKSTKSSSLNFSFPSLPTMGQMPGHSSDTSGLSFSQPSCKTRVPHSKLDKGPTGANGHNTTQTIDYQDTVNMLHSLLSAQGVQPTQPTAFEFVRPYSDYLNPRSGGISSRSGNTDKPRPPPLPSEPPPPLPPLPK

B1: His-Menin (natural protein, UniProt O00255 1-610, looked up)
chain: MGLKAAQKTLFPLRSIDDVVRLFAAELGREEPDLVLLSLVLGFVEHFLAVNRVIPTNVPELTFQPSPAPDPPGGLTYFPVADLSIIAALYARFTAQIRGAVDLSLYPREGGVSSRELVKKVSDVIWNSLSRSYFKDRAHIQSLFSFITGTKLDSSGVAFAVVGACQALGLRDVHLALSEDHAWVVFGPNGEQTAEVTWHGKGNEDRRGQTVNAGVAERSWLYLKGSYMRCDRKMEVAFMVCAINPSIDLHTDSLELLQLQQKLLWLLYDLGHLERYPMALGNLADLEELEPTPGRPDPLTLYHKGIASAKTYYRDEHIYPYMYLAGYHCRNRNVREALQAWADTATVIQDYNYCREDEEIYKEFFEVANDVIPNLLKEAASLLEAGEERPGEQSQGTQSQGSALQDPECFAHLLRFYDGICKWEEGSPTPVLHVGWATFLVQSLGRFEGQVRQKVRIVSREAEAAEAEEPWGEEAREGRRRGPRRESKPEEPPPPKKPALDKGLGTGQGAVSGPPRKPPGTVAGTARGPEGGSTAQVPAPTASPPPEGPVLTFQSEKMKGMKELLVATKINSSAIKLQLTAQSQVQMKKQKVSTPSDYTLSFLKRQRKGL
notes: Menin, MEN1 cDNA cloned into pET-22b (+); also called His-tagged Menin protein; recombinant His-Menin protein; source: Escherichia coli (DE3), purified
Turning to B1, the binding result is on record as “binds”.
